Results as given in paper PMC3147155.

Target: I95E mutant of the PAS-A domain of the Bacillus subtilis protein KinA (Bacillus subtilis)
Experiment: AUC

- log(Ka): 3.96
- log(k−) (log of koff): -3.7
- stoichiometry N: 2
Substance: I95E mutant of the PAS-A domain of the Bacillus subtilis protein KinA (domain or fragment)
